Measurements reported in article PMC4173072, “A truncated form of the Carbon catabolite repressor 1 increases cellulase production in Trichoderma reesei”.

Molecular target: CREI-96 (truncated Carbon catabolite repressor 1, Cre1-96) (Trichoderma reesei Rut-C30, UniProt G0RB08 1-96)
Experiment: competition; 2000 nM protein; 50-, 100-, 200-fold competitor against N1; bands unchanged; GST elution buffer, 10 min at 22 °C; non-denaturing PAGE; salt and pH not stated
Conditions: protein: recombinant; tags: GST fusion (37 kDa), thrombin-cleaved before use; label: unlabelled; blunt

CREI-96 (truncated Carbon catabolite repressor 1, Cre1-96), sequence (G0RB08 entry or part of it): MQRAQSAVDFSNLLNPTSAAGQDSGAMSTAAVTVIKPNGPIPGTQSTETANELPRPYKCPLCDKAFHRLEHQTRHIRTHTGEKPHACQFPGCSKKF

B1: mutated cold competitor RG221/RG222 (dsDNA)
DNA 1: CCAACGGCTTGTTGGGTTGCAGAAGCAACGGCAAAGCCCAACTTCCCAACGTTTGTTTCT
DNA 2: AGAAACAAACGTTGGGAAGTTGGGCTTTGCCGTTGCTTCTGCAACCCAACAAGCCGTTGG
Question: Does B1 bind?
Answer: no binding
